Results on 2 molecules are retold here after patent publication US20230399394A1 (SUNSHINE GUOJIAN PHARMACEUTICAL SHANGHAI, published 2023).

The target in assay [1] is T1, IL-33 protein without any mutation (WT) (human, UniProt O95760 112-270).
T1 construct: Control of the alanine scan (four runs WT-1 to WT-4); also called WT-1; WT-2
T1 sequence: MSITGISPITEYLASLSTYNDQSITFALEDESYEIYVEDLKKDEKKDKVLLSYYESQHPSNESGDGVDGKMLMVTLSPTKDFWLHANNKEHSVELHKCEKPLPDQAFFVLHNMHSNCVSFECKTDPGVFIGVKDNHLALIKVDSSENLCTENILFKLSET
The assay can be described thus: ELISA as Example 9; row WT-1, the reference itself. As to the method:
(§1) SA protein was diluted to 2 μg/mL to coat ELISA plate at 100 μL/well overnight at 4° C. The plate was washed with PBST (PBS containing 0.05% Tween20) for 3 times, and blocked with 2% BSA prepared in PBS at 200 μL/well, at room temperature for 2 h. After the plate was washed twice with PBST, IL-33-his-biotin protein was diluted to 1 μg/mL with 1% BSA prepared in PBST, and was added to ELISA plate at 100 μL/well. The plate was incubated at room temperature for 1 h, and each monoclonal antibody was diluted with 1% BSA prepared in PBST in a 3-fold gradient. The highest concentration of antibody was 10 μg/mL, and the antibody was diluted for 12 gradients. Each diluted monoclonal antibody was added to ELISA wells with 100 μL/well, and the plate was incubated at room temperature for 1 h. Each sample was added to duplicate wells in parallel. The plate was washed with PBST for 3 times, and HRP-anti human IgG Fc secondary antibody prepared with PBST was diluted at an appropriate ratio, and was added to ELISA wells at 100 μL/well. […] Each reaction solution was shaken uniformly and OD450 nm was read on a microplate reader. The data was analyzed and EC₅₀ was calculated.
(§2) Subsequently, according to the experimental method of Example 9, the affinity of the above mutant proteins to 874F7-Hu1 was determined, and IL-33 proteins (WT-1, WT-2, WT-3, and WT-4) without any mutation were set as controls.
In general terms: In an ELISA, binding on a coated surface is turned into a signal by an enzyme label.

Assay [2] deals with T2, IL-33 mutant protein Q57A (human, UniProt O95760 112-270).
T2 construct: Prokaryotic expression
T2 chain: T1 sequence with Q57A
Description: ELISA as Example 9; row Q57A. As to the method:
as §1, §2

Assay [3] addresses T3, IL-33 mutant protein S52A (human, UniProt O95760 112-270).
T3 construct: Prokaryotic expression
T3 chain: T1 sequence with S52A
The assay can be described thus: ELISA as Example 9; row S52A. As to the method:
as §1, §2

Assay [4] has as its target T4, IL-33 mutant protein D65A (human, UniProt O95760 112-270).
T4 construct: Prokaryotic expression
T4 chain: T1 sequence with D65A
Description: ELISA as Example 9; row D65A against WT-3. How it is done: as §1, §2

Assay [5] addresses T1, IL-33 protein without any mutation (WT). Description: ELISA as Example 9; row WT-1. How it is done:
as §1, §2

The target in assay [6] is T3, IL-33 mutant protein S52A. The assay can be described thus: ELISA as Example 9; row S52A against WT-2. As to the method: as §1, §2
For assay [7], the target named is T5, Cynomolgus IL-33-his (cynomolgus, UniProt A0A2K5W3I1 112-269, biotinylated in the ELISA of Example 6).
T5 construct: Bought protein; also called cynomolgus IL-33 protein; Cynomolgus monkeys IL-33
T5 sequence: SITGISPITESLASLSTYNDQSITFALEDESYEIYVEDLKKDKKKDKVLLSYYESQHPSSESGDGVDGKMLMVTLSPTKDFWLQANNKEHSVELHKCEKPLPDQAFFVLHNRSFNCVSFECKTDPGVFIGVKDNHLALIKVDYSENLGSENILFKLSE
Description: indirect ELISA, biotinylated cynomolgus IL-33-his on streptavidin plate. How it is done: The binding ability of murine antibody to cynomolgus IL-33 was determined by indirect enzyme-linked immunosorbent assay (ELISA). The specific methods were as follows: The plate was pre-coated by biotin-avidin (SA) which was diluted in coating solution (50 mM carbonate coating buffer, pH 9.6) to 2 μg/ml at 4° C. overnight. The plate was blocked with 5% skim milk powder at 37° C. for 2 hours, and stored at −80° C. for later use. Biotinylated recombinant cynomolgus IL-33-his protein was diluted to 1 μg/ml in coating solution (50 mM carbonate coating buffer, pH 9.6) and was added at 100 μl/well to the pre-coated SA plate for 0.5 h at 37° C. After washing the plate with PBST for 3 times, the antibodies to be tested were diluted by gradient with 1% BSA buffer and added into the blocked plate with 100 μl/well, and incubated at 37° C. for 1 hour. The plate was washed with PBST for 3 times, and the HRP-labeled goat anti-mouse IgG was added and placed at 37° C. for 30 min. After washing the plate with PBST for 3 times, the plate was patted on the absorbent paper to remove residual droplets as far as possible. […] OD values were read at 450 nm on the microplate reader to analyze the binding ability of the antibody to the target antigen cynomolgus IL-33-his.

Substitutions are numbered along the chain they refer to.

B1: 874F7-Hu1 (antibody, human IgG4 S228P, kappa)
heavy: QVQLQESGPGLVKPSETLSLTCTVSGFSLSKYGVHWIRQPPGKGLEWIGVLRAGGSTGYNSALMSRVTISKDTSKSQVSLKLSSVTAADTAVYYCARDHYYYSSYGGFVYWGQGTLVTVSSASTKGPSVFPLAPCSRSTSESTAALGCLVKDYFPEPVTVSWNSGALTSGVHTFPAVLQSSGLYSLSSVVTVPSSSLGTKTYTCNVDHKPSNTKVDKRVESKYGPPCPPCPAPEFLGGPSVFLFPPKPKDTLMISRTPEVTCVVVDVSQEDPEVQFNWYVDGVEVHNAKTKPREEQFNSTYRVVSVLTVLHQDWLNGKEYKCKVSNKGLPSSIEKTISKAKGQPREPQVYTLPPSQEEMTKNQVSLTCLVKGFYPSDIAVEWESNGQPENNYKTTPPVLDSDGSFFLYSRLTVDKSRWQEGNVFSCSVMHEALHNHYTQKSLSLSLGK
light: DIQMTQSPSSVSASVGDRVTITCLASQTIGAWLAWYQQKPGKSPKLLIYAATRLADGVPSRFSGSGSGTDFTLTISSLQPEDFATYYCQQLDSSPYTFGQGTKVEIKRTVAAPSVFIFPPSDEQLKSGTASVVCLLNNFYPREAKVQWKVDNALQSGNSQESVTEQDSKDSTYSLSSTLTLSKADYEKHKVYACEVTHQGLSSPVTKSFNRGEC
notes: also called 874F7-Hul; humanized antibody 874F7-Hu1
Turning to B1, the results for the Affinity decline ratio in assay [1], in assay [4] and in assay [6] were 1 fold, 192 fold and 14.6 fold, respectively. Moreover, the EC50 (commonly the midpoint of the concentration-response curve) in assay [2] was found to be 0.12 nM; in assay [3] it was 1.96 nM; in assay [5] it was 0.23 nM.

B2: 874F7 (antibody, V domains shown)
VH: QVQLKESGPGLVAPSHSLSITCNVSGFSLSKYGVHWIRQIPGRGLDWLGVLRAGGSTGYNSALMSRLSISKDSSKSQVFLKMNDLRTDDTAVYFCVRDHYYYSSYGGFVYWGQGTLVTVSA
VL: DIQMTQSPASQSASLGESVTITCLASQTIGAWLAWYRQQPGKSPQLLIYAATRLADGVPSRFSGSGSGTEFSFKINNLQAEDFVSYYCQQLDSSPYTFGGGTRLEM
notes: Murine hybridoma antibody purified on Protein G; also called murine antibody 874F7
The molecule B2 yielded an EC50 in assay [7] of 0.03 nM.
